Test results from publication PMC6063412 (2018).
Substitutions are numbered along the chain they refer to.

T1: recombinant human PDGF-CC core domain protein (activated PDGF-CC, growth factor domain) (human, UniProt Q9NRA1 230-345)
T1 chain: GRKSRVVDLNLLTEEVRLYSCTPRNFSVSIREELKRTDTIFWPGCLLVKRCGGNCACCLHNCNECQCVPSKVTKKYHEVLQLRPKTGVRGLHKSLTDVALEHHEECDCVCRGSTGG

B1: monoclonal anti-PDGF-CC antibody 6B3 (antibody, V domains shown)
VH: QVQLQQSGVEVARPGASVKLSCKASGYTFRSYGITWVRQRTGQGLEWIGEIYPRSGKTYYNEKFKGKATLTADTSSSTVYMELRSLTSEDSAVYFCAREGYGYDGGYFDYWGQGTTLTVSS
VL: DIVMTQSPSSLAMSVGQKVTMSCKSSQSLLNSRNQKNYLAWYQQKPGQSPKLLVYFASTRESGVPDRFTGSGSGTDFTLTISSVQAEDLAVYYCQQHYSTPLTFGAGTKLELK
B2: monoclonal anti-PDGF-CC antibody 11F5 (antibody, V domains shown)
VH: QVQLQQSGAELARPGASVKLSCKASGYIFISYGISWVKQRTGQGLEWIGEIYPRSGKTYYNEKFKDKAALTADKSSSIAYMELRSLTSEDSAVYFCAREGYGYDGGYFDYWGQGTILTVSS
VL: B1 VL with T20A, M21V, R33S, E61D
B3: monoclonal anti-PDGF-CC antibody 19C7 (antibody, V domains shown)
VH: B1 VH
VL: B1 VL

Target: T1, recombinant human PDGF-CC core domain …
Assay: SPR

| koff [s⁻¹] | Binder |
| --- | --- |
| 0.0015 | B1 |
| 0.00058 | B2 |
| 0.0016 | B3 |
